Reference: publication PMC2873410

How the values were obtained:
Test in all cases: cross-linking; lysate (hypotonic buffer) of Sf9 cells expressing the V5-tagged protein, 0.01% glutaraldehyde at room temperature for various times; Western blot with anti-V5 antibody
[1] = target: WSSV structural protein VP19, full length, V5- or FLAG-tagged (white spot syndrome virus (WSSV-TW strain))
[2] = target: WSSV structural protein VP51A, full length, V5- or FLAG-tagged (white spot syndrome virus (WSSV-TW strain))
[3] = target: WSSV structural protein VP24, full length, V5- or FLAG-tagged (white spot syndrome virus (WSSV-TW strain))

Work on “WSSV structural protein VP19, full length, V5- or FLAG-tagged (natural protein)” yielded a stoichiometry N [1] of 2.

“WSSV structural protein VP51A, full length, V5- or FLAG-tagged (natural protein)” was tested, and the stoichiometry N [2] was 2.

With “WSSV structural protein VP24, full length, V5- or FLAG-tagged (natural protein)” the stoichiometry N [3] was 2.
